Substitutions are numbered along the chain they refer to. Numbers in names are those of the source.
What was measured:
[1] = target: SIAH1-SBD (89-282) F165A (human) (UniProt Q8IUQ4); experiment: ITC; ITC200, 25 °C; 20 mM Tris-HCl pH8.0, 100 mM NaCl; 330 μM Axin2 peptide injected into 30 μM SIAH1; single binding site model
[2] = target: SIAH1-SBD (substrate-binding domain of E3 ubiquitin-protein ligase SIAH1, residues 89-282) (human) (UniProt Q8IUQ4); experiment: as above
[3] = target: T1, wt Axin2_(356–368) peptide used in ITC, Q9Y2T1; experiment: ITC; conditions: chain shown with the change;; parent: 8.77
T1 chain: HRLPKEMTPVEPA

[4] = target: T2, SIAH1-SBD (substrate-binding domain of E3 ubiquitin-protein ligase SIAH1, residues 89-282) (human, UniProt Q8IUQ4-1 89-282); experiment: ITC
T2 chain: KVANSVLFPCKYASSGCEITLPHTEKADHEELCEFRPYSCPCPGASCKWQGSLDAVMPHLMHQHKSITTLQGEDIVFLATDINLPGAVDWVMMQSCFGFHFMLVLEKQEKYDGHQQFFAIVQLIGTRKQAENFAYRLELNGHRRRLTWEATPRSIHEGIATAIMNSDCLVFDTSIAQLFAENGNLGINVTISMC

[5] = target: T3, SIAH1-SBD (substrate-binding domain of E3 ubiquitin-protein ligase SIAH1, residues 89-282) (human, UniProt Q8IUQ4-1 89-282); experiment: BLI; Octet Red96; GST-Axin2-GBD or its deletion loaded onto GST biosensors, quenched with GST; dipped into SIAH1-SBD at 0.03-30 μM; free-GST biosensors as controls; conditions: both partners purified
T3 construct: Cloned from HeLa cDNA into pET28a with a TEV site at the N-terminal; The PDB code is printed as 8HEO in the results and as 8HE0 in the data availability statement; also called SIAH1-SBD_(89–282); SBD of SIAH1; source: E. coli BL21(DE3), purified (Ni-NTA, His-tag cleavage by TEV, Ni-NTA, HiTrap Q, Superdex 200); not shown: His tag, N-terminal, cleaved
T3 sequence (looked up): T2 chain

[6] = target: T3, SIAH1-SBD (substrate-binding domain of …); experiment: crystal structure; SIAH1-SBD mixed with Axin2 (356–376) at a molar ratio of 1:5; 0.1 M Bis-tris propane pH8.4, 24% PEG6000, 4 °C; 2.53 Å; conditions: both partners purified

## wt Axin2_(356–368) peptide used in ITC (from UniProt Q9Y2T1 356-368)
[1]
  Kd: 14.4 µM
[2]
  Kd: 8.77 µM
  stoichiometry N: 1

## Axin2_(356–368) E366A (from UniProt Q9Y2T1 356-368) (peptide)
[2]
  Kd: 97.1 µM

B1: SIAH1-SBD (substrate-binding domain of E3 ubiquitin-protein ligase SIAH1, residues 89-282), Q8IUQ4-1 Q159A (protein)
chain: T2 chain with Q71A
[3]
  Kd: 9.1 µM

B2: SIAH1-SBD (substrate-binding domain of E3 ubiquitin-protein ligase SIAH1, residues 89-282), Q8IUQ4-1 T156A (protein)
chain: T2 chain with T68A
[3]
  Kd: 10.5 µM

## HRLPKEMAPVEPATFAAELIS [Axin2_(356–368) single mutant T363A]
[4]
  Kd: 8.7 µM

B3: GST-Axin2-GBD (GSK3 binding domain of Axin2, residues 334-432, with a GST-tag) (domain or fragment, human, UniProt Q9Y2T1 334-432, looked up)
chain: QREMHRSVKANGQVSLPHFPRTHRLPKEMTPVEPATFAAELISRLEKLKLELESRHSLEERLQQIREDEEREGSELTLNSREGAPTQHPLSLLPSGSYE
notes: pGEX-6p-1 construct; also called Axin-GDB; source: E. coli BL21 (DE3), purified (glutathione sepharose 4B); not shown: GST, N-terminal, kept
[5]
  Kd: ~2.2 µM

B4: Axin2 (residues 356–376) (peptide, UniProt Q9Y2T1 356-376, looked up)
chain: HRLPKEMTPVEPATFAAELIS
notes: human Axin2 (GenBank NM_004655.4), residues 356-376 within the GBD; also called Axin2_(356–376); Axin2 peptide; source: E. coli BL21 (DE3), purified (glutathione sepharose 4B, GST removed by PreScission protease, Superdex 75); not shown: GST, N-terminal, cleaved
[6]
  binding result: binds

— article PMC10135883, “Structural Basis of the Interaction between Human Axin2 and SIAH1 in the Wnt/β-Catenin Signaling Pathway” (Biomolecules, 2023)
